Assay results reported in the supplement of paper PMC10724198.
± gives the standard deviation of the averaged measurements.

Test system: Saccharomyces cerevisiae
Experiment: protein stability index of tFT-peptide fusion (C-terminal peptide) (PSI (0-1 scale)); higher = more stable (slower turnover)
Conditions: genetic background: wild type; temperature: 30 C
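Further: PSI is a weighted mean of sequencing reads over stability bins, variants kept only with over 10 reads, mCherry proximal and sfGFP distal, peptide attached via GGGS linker.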

Row | Sequence | protein stability index
1 | CPGLCVFFSPDY | 0.661 ± 0.044
2 | PPPPPPAFPPST | 0.716 ± 0.027
3 | GKALPALPSGLL | 0.657 ± 0.025
4 | SLSGPDIRLKPF | 0.673 ± 0.046
5 | NKSPWYYILQPM | 0.738 ± 0.082
6 | LFPALFWPTSTL | 0.743 ± 0.032
7 | LFRFFPWPPPPA | 0.682 ± 0.034
8 | LACTGFPPPFPL | 0.675 ± 0.017
9 | LGSGGLMEPWCG | 0.644 ± 0.11
10 | RLPSSPPSATWL | 0.6784 ± 0.0019
11 | ESQYAIFGHDIW | 0.709 ± 0.011
12 | WFNAGAGDLGSV | 0.709 ± 0.033
13 | LLDLYTLSRLDP | 0.754 ± 0.043
14 | PLILRSLFIFPV | 0.641 ± 0.037
15 | PVAVSQPNGPKD | 0.633 ± 0.031
16 | GSNPYNRHLINI | 0.693 ± 0.02
17 | PPPPLPPIRPYP | 0.719 ± 0.016
18 | PLLQALLPPAPP | 0.632 ± 0.026
19 | LTSPPRPAFVRV | 0.636 ± 0.035
20 | ACLYDSMSVSSK | 0.6386 ± 0.0012
21 | PTHPHLTLTETP | 0.687 ± 0.017
22 | GVGSVQRCGGGG | 0.6771 ± 0.0035
23 | GYTSGEEGAVTA | 0.624 ± 0.016
24 | LYHFYTASPCLI | 0.536 ± 0.044
25 | TLRVNAMFVEAM | 0.63 ± 0.014
26 | EGGGGGAGDARR | 0.685 ± 0.017

Row | Sequence | protein stability index
27 | GGGARFGLGGRM | 0.675 ± 0.027
28 | NHVWGSNRCSSC | 0.689 ± 0.04
29 | LDLVFYMFSPFL | 0.618 ± 0.061
30 | ACLCFIEFRCLL | 0.547 ± 0.017
31 | ARRPHSPLCTTR | 0.7101 ± 0.00075
32 | ARVIISGYWILY | 0.519 ± 0.048
33 | PFCVPPPRPFSL | 0.743 ± 0.036
34 | RITMNMHSLIIP | 0.711 ± 0.032
35 | TSKVEVDKGKLE | 0.723 ± 0.051
36 | GKILKGAASPSC | 0.72 ± 0.019
37 | SLPSPSPPSHPL | 0.705 ± 0.033
38 | SLFSFLPRLYSH | 0.627 ± 0.023
39 | SAVRHPRPGRPG | 0.6938 ± 0.0053
40 | PPPPPRPPLSPP | 0.725 ± 0.03
41 | SQGAGKCIIIAA | 0.561 ± 0.015
42 | FVLPSPRPPSMT | 0.704 ± 0.0078
43 | SHPTLCSFSPPA | 0.686 ± 0.035
44 | SRVQYVLDRSVF | 0.649 ± 0.0099
45 | AVEVRATVWWWW | 0.53259 ± 0.00014
46 | PLPASFPPFPTL | 0.802 ± 0.036
47 | AGRAVAAAVRED | 0.728 ± 0.076
48 | DGSFWKGQGAGV | 0.671 ± 0.011
49 | PQPPRPARLCFP | 0.705 ± 0.028
50 | LGRPCGGVAGEQ | 0.637 ± 0.014
51 | LGGASNGCSTLK | 0.718 ± 0.091
52 | VSFWSVFSWLSG | 0.665 ± 0.014

Row | Sequence | protein stability index
53 | AHQGSENRNMSV | 0.688 ± 0.043
54 | PVINPSCIVMMW | 0.65 ± 0.04
55 | GRFCGGAVSGGM | 0.634 ± 0.041
56 | PPSLSPFSACLS | 0.669 ± 0.064
57 | RQYCTRDHNIIK | 0.732 ± 0.025
58 | KERLLTLHSHSH | 0.71 ± 0.037
59 | HVPHFCLSPTII | 0.758 ± 0.14
60 | PRPPHPPPSSPR | 0.69 ± 0.096
61 | RVTLWDGSRSRI | 0.711 ± 0.017
62 | REKARNEKRRKT | 0.651 ± 0.0075
63 | PPLARPPLPAPF | 0.6998 ± 0.0022
64 | LHLVRLEGEECL | 0.677 ± 0.027
65 | GASSLGVNGGSV | 0.6954 ± 0.0021
66 | VEEDPSSQLVIF | 0.599 ± 0.01
67 | PHRSTRIDVDPC | 0.837 ± 0.12
68 | TIPPSTRAITPV | 0.652 ± 0.046
69 | PPPPPLRVPPPP | 0.6753 ± 0.004
70 | FPCRSPKLYPPL | 0.655 ± 0.011
71 | LPFPPSPPLPSP | 0.57 ± 0.0099
72 | VGGGKRILVPRS | 0.691 ± 0.12
73 | LSSTIFHRSCVR | 0.759 ± 0.02
74 | CGRFVGEGGGKV | 0.777 ± 0.1
75 | PAPPHTLPVWAD | 0.728 ± 0.029
76 | LPIPCPSPPPPR | 0.708 ± 0.052
77 | GDASLSSLHIRL | 0.642 ± 0.02
78 | LEVVVVGGVGGG | 0.687 ± 0.085

Row | Sequence | protein stability index
79 | LLPRSPLLPPLH | 0.719 ± 0.0048
80 | HCFWVVTGGSWF | 0.691 ± 0.06
81 | FALWAGGTWFRT | 0.656 ± 0.013
82 | NNMFFTREYEKL | 0.674 ± 0.013
83 | KTQKYEIKNLKK | 0.581 ± 0.082
84 | GLQFDPALPLPP | 0.739 ± 0.022
85 | GCRGEGGWVGRG | 0.6955 ± 0.0029
86 | GGRAWRWVARVG | 0.673 ± 0.045
87 | GRGGEGQGKRRE | 0.668 ± 0.034
88 | SCPPSFIPVLSP | 0.667 ± 0.035
89 | EPNKGTNMKVND | 0.705 ± 0.048
90 | IFIVINGHFAGS | 0.66 ± 0.06
91 | RMRRAHCQQSGG | 0.6537 ± 0.0037
92 | YATAICRSGCLK | 0.699 ± 0.037
93 | FLLFLSSAPPAT | 0.655 ± 0.0084
94 | NSSPCPLPLLPP | 0.662 ± 0.036
95 | QKKKKKNKNDQK | 0.686 ± 0.056
96 | QKPKKKNTTEKQ | 0.689 ± 0.021
97 | CGVWHGFFGLWL | 0.657 ± 0.12
98 | PPTFPPLLSPPP | 0.661 ± 0.025
99 | SLILRHLSPPTP | 0.762 ± 0.15
100 | PLLPSPPHSPTP | 0.657 ± 0.045
101 | GPFWPGRFGFLC | 0.616 ± 0.0078
102 | PPPPPPLLPSPL | 0.705 ± 0.069
103 | EGACPFLSFRGF | 0.658 ± 0.024
104 | PVDFQSQGECEL | 0.695 ± 0.0089

Row | Sequence | protein stability index
105 | VLGRLRVGRDRV | 0.7521 ± 0.0019
106 | PARASLRCLCRN | 0.662 ± 0.055
107 | VWGRLGGGVGRA | 0.719 ± 0.069
108 | AMSSVRCRLWPM | 0.761 ± 0.034
109 | FCLSVVELRGLM | 0.672 ± 0.049
110 | ILCFSLESPRYH | 0.6991 ± 0.0022
111 | TSPLPTLLNDPP | 0.523 ± 0.0081
112 | GCEGGGRVGSWT | 0.742 ± 0.028
113 | GWGGGGGGGAGG | 0.665 ± 0.057
114 | AAQHNSLRGGPP | 0.731 ± 0.036
115 | CSLLFSLNLMPS | 0.666 ± 0.063
116 | WSGKRAKGISEK | 0.682 ± 0.04
117 | WRGRCGPVLGFC | 0.659 ± 0.027
118 | PLPPPRPLPTPL | 0.69 ± 0.055
119 | YCHLNLHGCKGC | 0.636 ± 0.023
120 | ARSLPSPTLPFL | 0.697 ± 0.058
121 | KQQCKTGRRRLV | 0.716 ± 0.072
122 | ERALYGFSSIFY | 0.667 ± 0.075
123 | RTQGVWYHGVRR | 0.745 ± 0.071
124 | KSAPAIRASRPR | 0.715 ± 0.0064
125 | GSGRPARCVEGG | 0.644 ± 0.03
126 | RVFLAVCYGCRV | 0.5659 ± 0.0034
127 | AGTCVSVGVHRY | 0.599 ± 0.051
128 | LHSPATAPHRPP | 0.67 ± 0.022
129 | PQRTPPRPNKPP | 0.556 ± 0.013
130 | IQAGHLYPESLV | 0.708 ± 0.056

Row | Sequence | protein stability index
131 | VFWGGGAVGSVR | 0.69 ± 0.071
132 | QPSRQTIPWDTV | 0.738 ± 0.037
133 | DGGRGQGMLGGS | 0.662 ± 0.063
134 | HDAPTRQLTLPG | 0.663 ± 0.031
135 | GGVEVAQGVVWC | 0.715 ± 0.066
136 | LYDQTSQDRRVF | 0.6974 ± 0.004
137 | AVAPPISTLLPV | 0.743 ± 0.04
138 | VPLSPVSSGAPD | 0.66 ± 0.04
139 | ENQGQSYVTMRY | 0.725 ± 0.046
140 | YVTSKLMNLVLY | 0.662 ± 0.066
141 | VLPRPLPALPPL | 0.683 ± 0.028
142 | PPLPPPPASPPP | 0.589 ± 0.045
143 | RCGLVGILCSSI | 0.5632 ± 0.004
144 | SILQINRDNVMR | 0.742 ± 0.02
145 | PLPPFPPHNLRA | 0.733 ± 0.082
146 | LFSGPYRYKAYM | 0.7273 ± 0.0061
147 | RVSWRLSYLCPV | 0.694 ± 0.14
148 | CVSTYLTCSITS | 0.54 ± 0.022
149 | GPEYPFRCRRLF | 0.665 ± 0.039
150 | LFGTGVRCGVCS | 0.637 ± 0.092
151 | APTRPPRPNLFH | 0.625 ± 0.018
152 | PPPVLPSPRSDP | 0.667 ± 0.17
153 | VSVGRSSARVIG | 0.725 ± 0.02
154 | TLQRARTGSTPK | 0.684 ± 0.055
155 | VRPREWMIPFEC | 0.709 ± 0.012
156 | KNKMGRKYTLPH | 0.654 ± 0.081

Row | Sequence | protein stability index
157 | LPPPSPGLPLSP | 0.6773 ± 0.0059
158 | YRPPPLSPPSPP | 0.695 ± 0.013
159 | PPPSAPLPPSPP | 0.6424 ± 0.0043
160 | PPPPPPLPPSPL | 0.634 ± 0.1
161 | VGGHGGVGGGMG | 0.651 ± 0.026
162 | EGGESRGKGYRS | 0.691 ± 0.025
163 | PCSVDKAGSTKK | 0.606 ± 0.014
164 | PPAPPPLPLPLF | 0.72 ± 0.0079
165 | VGWGGGVEEVKG | 0.712 ± 0.017
166 | SPPPPPPPPPPL | 0.757 ± 0.041
167 | PDRIQPRSVLLP | 0.7293 ± 0.0047
168 | LRRTMRLASASF | 0.831 ± 0.014
169 | RNLRCDIVNVYP | 0.759 ± 0.015
170 | DCFSASIHYCPS | 0.714 ± 0.059
171 | KKKRKDKTKIDK | 0.658 ± 0.057
172 | FAFQAHWGCRDF | 0.703 ± 0.053
173 | DVSSRDLCWLVC | 0.6422 ± 0.0052
174 | QKEETGGLGGGK | 0.6609 ± 0.0025
175 | LVVGFRVGLRGV | 0.669 ± 0.035
176 | KKKTRIYKRQKR | 0.655 ± 0.077
177 | SLRWVHVRGVLQ | 0.702 ± 0.013
178 | RNKKIKKKKGRN | 0.701 ± 0.069
179 | WSSLSCACVVPF | 0.726 ± 0.065
180 | VLRHRGEGGPGA | 0.67 ± 0.035
181 | DHIALIWGCSNF | 0.703 ± 0.06
182 | CIFWGSGWDTLV | 0.728 ± 0.063

Row | Sequence | protein stability index
183 | GEGGEGWGCFSF | 0.677 ± 0.021
184 | LALYISFGLSLI | 0.526 ± 0.031
185 | MLRMSVSRGGLL | 0.729 ± 0.011
186 | GVLQEYIGKKQK | 0.723 ± 0.043
187 | RPLSPPSAPTSF | 0.679 ± 0.0055
188 | FLLHHVSRSPSA | 0.692 ± 0.014
189 | GGRPVGRRRPGA | 0.671 ± 0.031
190 | VGSGGGAPRVGR | 0.647 ± 0.072
191 | QIQNRVDYRIKL | 0.6353 ± 0.0031
192 | TYSERADLCAQL | 0.678 ± 0.016
193 | RSSNNQRARPPQ | 0.627 ± 0.028
194 | LHLRPPHPPLPS | 0.717 ± 0.015
195 | CYPFSGLWPPPP | 0.717 ± 0.018
196 | PTPPPPPSPFAL | 0.804 ± 0.15
197 | ELLTCSSSVMLL | 0.799 ± 0.026
198 | HTGLRASSPNST | 0.753 ± 0.052
199 | PRPAPGGSPALT | 0.689 ± 0.083
200 | LIQKANGRIRRG | 0.763 ± 0.02
201 | ISILPDSIGQGA | 0.687 ± 0.055
202 | CGILTWASSSLG | 0.688 ± 0.034
